Data on one substance can be found in PMC3436176.

This experiment concerns the target III-30A (human). Kind of experiment: ELISA.

Chain of GPVIex (recombinant extracellular domain of GPVI) (Q9HCN6 21-214): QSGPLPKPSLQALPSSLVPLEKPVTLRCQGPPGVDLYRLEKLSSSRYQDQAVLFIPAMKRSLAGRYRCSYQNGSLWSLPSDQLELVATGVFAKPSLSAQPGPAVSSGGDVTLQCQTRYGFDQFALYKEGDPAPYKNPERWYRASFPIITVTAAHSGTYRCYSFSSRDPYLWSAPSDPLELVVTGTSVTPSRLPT

For orientation: Kd means the concentration at which binding is half-saturated. “GPVIex (recombinant extracellular domain of GPVI) (from UniProt Q9HCN6 21-214) (domain or fragment)” had a Kd of 10.2 µM. This lies in the double-digit micromolar range.
